From US20240041988A1, “Use of elapidae postsynaptic neurotoxin in the treatment of over expression of inflammatory cytokines related diseases” (priority 2020, published 2024)

Columns and labels:
[1] = test system: tumor necrosis factor alpha (TNF-alpha); assay: Carrageenan pleural inflammation rat model, serum TNF-alpha by ELISA; type: in vivo, Wistar rats; settings: rat tail vein blood 6 hours after carrageenan, n = 10, inflammation group 61.30 ± 7.86, saline control 42.70 ± 5.93
Method: (§1) 140 Wistar rats (200-240 g) are randomly divided into 14 groups, and each group is 10. The preparation method comprises the following steps: (group 1) only receiving sterile normal saline ([…]) (control group); (group 2) carrageenan inflammation modeling+oral normal saline 10 ml/kg (inflammation group); (Group 3) Carrageenan Inflammation modeling+oral Naja atra postsynaptic neurotoxin (SEQ ID NO 1) 200 μg/kg prepared into a liquid state and continuous intragastric administration performed; (Group 4) Carrageenan Inflammation modeling+oral Naja atra postsynaptic neurotoxin (SEQ ID NO 1) 800 μg/kg prepared into a liquid state and continuous intragastric administration performed. (Group 5-14) The postsynaptic neurotoxin of Bungarus multicinctus, Ophiophagus Hannah, Naja kaouthia, Dendroaspis polylepis, Bungarus fasclatus, through the same administration model, that means carrageenan inflammation modeling+oral administration of 200 μg/kg and 800 μg/kg two doses respectively and continuously intragastric administration, so that the rat is divided into 14 groups.
(§2) Except for the […], 0.1 ml of sterile normal saline+carrageenan (CG, 1%) is injected into the rest 13 groups through pleural cavities for inflammation modeling. The preparation method comprises the following steps: 1 hour before molding, orally administration of normal saline or different types of postsynaptic neurotoxin with different doses respectively in each group, 6 hours after the carrageenan injection, collecting rat tail vein blood to detect the concentration of IL-1 beta and TNF-alpha.
(§3) The serum of the collected rat tail vein blood is separated and collected by using a commercial ELISA assay kit, and biochemical evaluation is carried out on the concentration of the tumor necrosis factor alpha (TN F-alpha) and interleukin 1 beta (IL-1 beta) according to the instructions of experimental step of the kit's manufacturer.

[2] = test system: interleukin 1 beta (IL-1 beta); assay: Carrageenan pleural inflammation rat model, serum IL-1 beta by ELISA; type: in vivo, Wistar rats; settings: rat tail vein blood 6 hours after carrageenan, n = 10, inflammation group 52.40 ± 6.74, saline control 35.20 ± 4.78
Method: as §1, §2, §3

[3] = 200 μg/kg oral (intragastric) 1 hour before carrageenan
[4] = 800 μg/kg oral (intragastric) 1 hour before carrageenan

Row | Molecule | TNF-a blood average concentration (x ± s) [1, 3] | TNF-a blood average concentration (x ± s) [1, 4] | IL-1β blood average concentration (x ± s) [2, 3] | IL-1β blood average concentration (x ± s) [2, 4]
1 | SEQ ID No20 (protein, listed as Bungarus fasclatus) RICLNQQQSTPEDQPTNGQCYIKTDCQNKTWNTHRGSRTDRGCGCPKVKPGINLRCCKTDKCNE | 52.82 ± 6.55 ng/L | 47.81 ± 5.72 ng/L | 44.10 ± 4.32 *^ ng/L | 40.80 ± 3.78 ng/L
2 | SEQ ID No9 (protein, Ophiophagus hannah) TKCYKTGDRIISEACPPGQDLCYMKTWCDVFCGTRGRVIELGCTATCPTVKPHEQITCCSTDNCNPHPKMKQ | 54.80 ± 5.01 ng/L | 51.20 ± 5.76 ng/L | 44.50 ± 4.97 ng/L | 41.70 ± 4.23 ng/L
3 | SEQ ID No1 (protein, listed as Naja atra) LECHNQQSSQTPTTTGCSGGETNCYKKRWRDHRGYRTERGCGCPSVKNGIEINCCTTDRCNN | 53.70 ± 6.32 ng/L | 50.60 ± 5.89 ng/L | 45.40 ± 4.95 ng/L | 41.30 ± 4.31 ng/L
